Experimental data taken from patent US9335325B2, “Immunodominant Mycobacterium tuberculosis peptides from cell wall proteins for early diagnosis and immunization” (priority 2008, dated 2016).

Experiments:
[1] = system: fibronectin (human plasma); assay: Western blot binding of rPTRP to ECM protein; conditions: ECM protein 5 μg/ml
[2] = system: other ECM proteins tested (fibrinogen, elastin, collagen I-IV, vitronectin); assay: Western blot binding of rPTRP to other ECM proteins; set-up: species or system human; conditions: data not shown
[3] = system: Laminin-1 (human placenta); assay: Western blot binding of rPTRP to ECM protein; conditions: ECM protein 5 μg/ml
[4] = system: fibronectin (human plasma); assay: ELISA binding of rPTRP to ECM protein; conditions: rPTRP 5-20 μg/ml coated
Procedure: (§1) The wells of ELISA plates were coated with various concentration of rPTRP (5-20 μg/ml in PBS) or BSA for 1 h at 37° C. followed by ON at 4° C. Subsequently, the wells were washed with PBS, blocked with 1% BSA in PBS (2 h at 37° C.), washed again with PBST and incubated with different ECM proteins (1 μg/ml; only laminin at 0.5 μg/ml) for 2 h at 37° C. After washing again, the wells were exposed to respective anti-ECM antibodies and the appropriate enzyme-conjugated secondary antibodies to detect the bound ECM proteins.

[5] = system: Laminin-1 (human placenta); assay: ELISA binding of rPTRP to ECM protein; conditions: rPTRP 5-20 μg/ml coated, laminin 0.5 μg/ml
Procedure: as §1

[6] = target: T1, Thrombospondin (human platelet) (Homo sapiens, UniProt P07996); assay: ELISA binding of rPTRP to ECM protein; conditions: rPTRP 5-20 μg/ml coated
T1 construct: Thrombospondin (human platelet) was from Calbiochem, EMD Biosciences Inc; purchased Calbiochem, EMD Biosciences Inc; host or cells: human platelet
Procedure: as §1

[7] = system: anti-PTRP antibodies in sera from TB patients; assay: Western blot of rPTRP probed with human sera; assay type: binding; conditions: for sera showing reactivity with the ~52 kDa protein: positive/tested
[8] = target: T1, Thrombospondin (human platelet); assay: Western blot binding of rPTRP to ECM protein; conditions: ECM protein 5 μg/ml
Procedure: The binding of the purified rPTRP to various ECM proteins was determined both by western blotting and ELISA (21). Laminin-1 (human placenta); fibronectin and fibrinogen (human plasma) and elastin (human lung) were obtained from Sigma; human collagen I; collagen III and collagen IV (human placenta), collagen II (human cartilage) and vitronectin (human plasma) from Chemicon International Inc. Temecula, Calif. Thrombospondin (human platelet) was from Calbiochem, EMD Biosciences Inc. and BSA (negative control) was from Promega. Western blots containing rPTRP (0.4 μg/lane) were blocked with 3% BSA in PBS and incubated with the ECM proteins (5 μg/ml) dissolved in PBS. Negative control lanes were incubated with PBS alone. The bound ECM proteins were detected with appropriate anti-ECM antibodies (anti-laminin, anti-fibronectin, anti-thrombospondin and anti-vitronectin at 1:5000; anti-fibrinogen at 1:1000; anti-Col I, Col III, Col IV and anti-elastin at 1:500; anti-Col II at 1:100) followed by appropriate enzyme-conjugated secondary antibodies (anti-rabbit IgG-AP at 1:2000; anti-goat IgG-AP at 1:3000).

T1 sequence (P07996 19-1170): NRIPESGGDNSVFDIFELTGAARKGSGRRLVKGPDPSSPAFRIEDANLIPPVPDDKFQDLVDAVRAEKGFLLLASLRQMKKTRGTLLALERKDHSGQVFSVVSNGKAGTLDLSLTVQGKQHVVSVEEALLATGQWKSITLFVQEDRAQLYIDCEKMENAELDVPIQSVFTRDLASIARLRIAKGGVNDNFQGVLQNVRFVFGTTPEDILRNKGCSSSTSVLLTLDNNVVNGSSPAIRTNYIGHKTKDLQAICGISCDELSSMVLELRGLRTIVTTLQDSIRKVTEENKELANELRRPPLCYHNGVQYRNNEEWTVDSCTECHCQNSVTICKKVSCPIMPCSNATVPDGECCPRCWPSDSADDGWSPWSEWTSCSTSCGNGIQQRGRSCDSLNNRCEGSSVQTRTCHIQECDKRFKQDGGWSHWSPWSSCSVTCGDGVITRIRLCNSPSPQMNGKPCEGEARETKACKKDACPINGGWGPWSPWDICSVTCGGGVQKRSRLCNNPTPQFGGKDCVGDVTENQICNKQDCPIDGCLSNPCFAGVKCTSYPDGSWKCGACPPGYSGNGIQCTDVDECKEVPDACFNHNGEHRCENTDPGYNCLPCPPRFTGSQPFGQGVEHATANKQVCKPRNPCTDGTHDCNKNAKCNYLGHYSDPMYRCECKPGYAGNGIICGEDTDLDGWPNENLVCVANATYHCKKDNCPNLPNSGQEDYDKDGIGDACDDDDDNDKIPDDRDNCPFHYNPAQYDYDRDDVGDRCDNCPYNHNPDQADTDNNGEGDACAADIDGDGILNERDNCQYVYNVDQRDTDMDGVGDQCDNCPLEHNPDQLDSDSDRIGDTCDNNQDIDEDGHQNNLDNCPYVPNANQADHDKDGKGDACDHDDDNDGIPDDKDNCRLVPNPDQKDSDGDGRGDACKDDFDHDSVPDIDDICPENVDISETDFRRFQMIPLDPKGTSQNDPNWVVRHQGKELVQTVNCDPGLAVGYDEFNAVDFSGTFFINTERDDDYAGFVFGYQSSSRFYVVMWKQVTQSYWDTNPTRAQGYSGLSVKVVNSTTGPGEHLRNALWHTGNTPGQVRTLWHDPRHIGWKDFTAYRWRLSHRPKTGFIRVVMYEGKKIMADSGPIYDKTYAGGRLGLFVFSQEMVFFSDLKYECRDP

B1: rPTRP: purified recombinant proline-threonine repetitive protein of Mtb (SEQ ID NO:2), GST tag cleaved (protein)
chain: MDVALGVAVTDRVARLALVDSAAPGTVIDQFVLDVAEHPVEVLTETVVGTDRSLAGENHRLVATRLCWPDQAKADELQHALQDSGVHDVAVISEAQAATALVGAAHAGSAVLLVGDETATLSVVGDPDAPPTMVAVAPVAGADATSTVDTLMARLGDQALAPGDVFLVGRSAEHTTVLADQLRAASTMRVQTPDDPTFALARGAAMAAGAATMAHPALVADATTSLPRAEAGQSGSEGEQLAYSQASDYELLPVDEYEEHDEYGAAADRSAPLSRRSLLIGNAVVAFAVIGFASLAVAVAVTIRPTAASKPVEGHQNAQPGKFMPLLPTQQQAPVPPPPPDDPTAGFQGGTIPAVQNVVPRPGTSPGVGGTPASPAPEAPAVPGVVPAPVPIPVPIIIPPFPGWQPGMPTIPTAPPTTPVTTSATTPPTTPPTTPVTTPPTTPPTTPVTTPPTTPPTTPVTTPPTTVAPTTVAPTTVAPTTVAPTTVAPATATPTTVAPQPTQQPTQQPTQQMPTQQQTVAPQTVAPAPQPPSGGRNGSGGGDLFGGF
modifications: GST tag cleaved; possible residual linker residues; Mycobacterium tuberculosis Strain H37Rv
**Q.** What does the source list for B1?
**A.** binding to fibronectin [1]: showed binding; binding to other ECM proteins [2]: not with any of the other ECM proteins tested; binding to laminin [3]: showed binding; binding to fibronectin [4]: in a dose-dependent manner; binding to laminin [5]: in a dose-dependent manner; binding to thrombospondin [6]: in a dose-dependent manner; sera showing significant reactivity with the protein ([7]; 6 PPD+, 6 PPD- and 6 HIV+TB- subjects): none; sera showing reactivity with the ~52 kDa protein ([7]; HIV+TB+ patients): 5/6; sera showing reactivity with the ~52 kDa protein ([7]; HIV-TB+ patients): 4/6; binding to thrombospondin [8]: showed binding
